Measured values reported in PMC2845718 (2009).

B1: MDM2 25-109 (protein)
chain: ETLVRPKPLLLKLLKSVGAQKDTYTMKEVLFYLGQYIMTKRLYDEKQQHIVYCSNDLLGDLFGVPSFSVKEHRKIYTMIYRNLVV
B2: MDMX 24-108 (protein)
chain: INQVRPKLPLLKILHAAGAQGEMFTVKEVMHYLGQYIMVKQLYDQQEQHMVYCGGDLLGELLGRQSFSVKDPSPLYDMLRKNLVT

Columns and labels:
Stingin-1 = assay: SPR
Stingin-2 = assay: SPR
Stingin-4 = assay: SPR competition

| Binder | Kd (Stingin-1) [nM] | Kd (Stingin-2) [nM] | Kd (Stingin-4) [nM] |
| --- | --- | --- | --- |
| B1 | 25.1 | 35.2 | – |
| B2 | 11.4 | 18 | 252 |
